Results: the nanobody polyreactivity screen of Harvey et al. (2022)

experiment: yeast display, Sf9 membrane polyspecificity reagent, FACS + sequencing; frameworks hold sequencing errors
Procedure, shortened: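 Sorting gates, low and high (top ~1%), were placed on anti-HA fluorescence to track expression and on streptavidin fluorescence to track reagent binding. A clone's polyreactivity label is taken from the gate it came out of. The reagent was 10% biotinylated, detergent-solubilized Sf9 membrane, applied for 1 hour at 4 °C to galactose-induced yeast display cells.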

Sequence	polyreactivity (PSR sort gate)
QVQLVESGGGLVQAGGSLRLSCAASGRTIGLYDMGWYRQAHGKERELVAGITRRGGRTYYADSVKGRFTISRDNAKNSVYLQMNSLKPEDTAVYYCAAGTIYLRHAQSPFDYWGQGTQGTVSS	high polyreactivity
QVQLVESGGGLVQAGGSLRLSCAASGRTIIFNAMGWYRPAPGKERELVAAISSGGGTNYADSVKGRFTISRDNAKNTVYLQMNSLKPEDTAVYYCAADPRDHYSYVYDGYKYDYWGQGTQVTVSS	low polyreactivity
QVQLVESGGGLVQAGGSLRLSCAASGRTIITYAMGWYRQAPGKERELVAAINSTDGTSYADSVKGRFTISRDNAKNTVYLQMNSLKPEDTAVYYCARGTEVKSGISYRFYYWGQGTQVTVSS	low polyreactivity
QVQLVESGGGLVQAGGSLRLSCAASGRTIIYYGMGWYRQAPGKERELVAAISLRGSSTRYADSVKGRFTISRDNAKNTVYLQMNSLKPEDTAVYYCAARPRLSRYDYWGQGTQVTVSS	high polyreactivity
QVQLVESGGGLVQAGGSLRLSCAASGRTIKYYAMGWYRQAPGKESELVAAISSSGGRTNYADSVKGRFTISRDNANNTVYLQMNSLKPEDTAVYYCAARFYKTYPRMNYWGQGTQVTVSS	high polyreactivity
QVQLVESGGGLVQAGGSLRLSCAASGRTILVYAMGWYRPAPGKERELVAAISSDGSTNYADSVKGRFTISRDNAMNTVYLQMNSLNPEDTAVYYCARDYYAVSYLYDYWGQGTQVTVSS	low polyreactivity
QVQLVESGGGLVQAGGSLRLSCAASGRTIPSNAMGWYRQAPGKERELVAAITRSGGSTKYADSVKGRFTISRDNAKNTVYLQMNSLKPEDTAVYYCAGRYHSGSQVWYNYWGQGSQVTVSS	high polyreactivity
QVQLVESGGGLVQAGGSLRLSCAASGRTIRAYTMGWSRQAPGKERELVAAISTPGGSTYYADSVKGRFTISRDNAKNTVYLQMNSLKPEDTAVYYCAADYGGPITGYEYWGQGTQVTVSS	low polyreactivity
QVQLVESGGGLVQAGGSLRLSCAASGRTIRGNAMGWYRQAPGKERELVAAITRSGASTTYADSVKGRFTISRDNAKNTVYLQMNSLKPEDTAVYYCAARSGAVKYSSYYYWGQGTQVTVSS	high polyreactivity
QVQLVESGGGLVQAGGSLRLSCAASGRTIRHNAMGWYRQAPGKERELVAAISRSGGSTYYADSVKGRFTISRDNAKNTVYLQMNSLKREDTAVYYCAAGYHGYDWGQGTQVTVSS	high polyreactivity
QVQLVESGGGLVQAGGSLRLSCAASGRTIRRNAMGWYRQAPGKERELVAGISGSGTITYADSVKGRFTISRDNAKNTVYLQMNSLKPEDTAVYYCAARRKSFYTFYYWGQGTQVTVSS	high polyreactivity
QVQLVESGGGLVQAGGSLRLSCAASGRTIRWNAMGWYRPAPGKERELVAAITSRGGSTYYADSVKGRFTISRDNAKNTVYLQMNSLKPEDTAVYYCAARRRSAQSGSYNHWGQGTQVTVSS	high polyreactivity
QVQLVESGGGLVQAGGSLRLSCAASGRTIRWNDMGWYRQAPGKERELVAAITSRGGSTYYADSVKGRFTISRDNAMNTVYFQMNSLKPEDTAVYYCAKQPKPPPVTGYDYWGQGSQVTVSS	high polyreactivity
QVQLVESGGGLVQAGGSLRLSCAASGRTIRWYAMGWYRPARGKERELVAVISRGGGSTTYADSVKGRFTISRDNAKNTVYLQMNSLKPEDTAVYYCAAYWGRTGYYGYDYYYWGQGTQVTVSS	high polyreactivity
QVQLVESGGGLVQAGGSLRLSCAASGRTIRYNAMGWYRQAPGKERELVAAITGSGGSTYYADSVKGRFTISRDNAKNTVYLQMNSLKPEDTAVYYCNAVGIWFPIRLIVPYDYWGQGTQVTVSS	low polyreactivity
QVQLVESGGGLVQAGGSLRLSCAASGRTIRYYTMGWYRQAPGKERELVAAISRSGGNTYYADSVKGRFTISRDNAKITVYLQMNSLKPEETAVYYCNKEYRHYVGRHDYWGQGTQVTVSS	high polyreactivity
QVQLVESGGGLVQAGGSLRLSCAASGRTIRYYTMGWYRQAPGKETELVATITGTGSTNYADSVKGRFTISRDNAKNTVYFQMNSLKPEDTEVYYCNARWDFVGTWRIYNYWGQGTQVTVSS	high polyreactivity
